Data from patent publication US20200277392A1 (Hoffmann-La Roche, published 2020).

T1: human OX40 on cells (human, UniProt P43489 29-277)
T1 construct: also called CD134; OX40+ Cells
T1 sequence: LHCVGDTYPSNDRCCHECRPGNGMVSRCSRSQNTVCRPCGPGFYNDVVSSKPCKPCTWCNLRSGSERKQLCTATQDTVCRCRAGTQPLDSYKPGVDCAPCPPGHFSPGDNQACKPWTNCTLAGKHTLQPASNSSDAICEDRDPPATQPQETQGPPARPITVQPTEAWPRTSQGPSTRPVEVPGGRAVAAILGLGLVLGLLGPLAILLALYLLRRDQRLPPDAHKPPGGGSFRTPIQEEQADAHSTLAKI

T2: cynomolgus TnC with C-terminal Avi- and His-tags (cynomolgus, biotinylated at the C-terminal Avi-tag)
T2 construct: also called cynoTnC; cyno TnC
T2 chain: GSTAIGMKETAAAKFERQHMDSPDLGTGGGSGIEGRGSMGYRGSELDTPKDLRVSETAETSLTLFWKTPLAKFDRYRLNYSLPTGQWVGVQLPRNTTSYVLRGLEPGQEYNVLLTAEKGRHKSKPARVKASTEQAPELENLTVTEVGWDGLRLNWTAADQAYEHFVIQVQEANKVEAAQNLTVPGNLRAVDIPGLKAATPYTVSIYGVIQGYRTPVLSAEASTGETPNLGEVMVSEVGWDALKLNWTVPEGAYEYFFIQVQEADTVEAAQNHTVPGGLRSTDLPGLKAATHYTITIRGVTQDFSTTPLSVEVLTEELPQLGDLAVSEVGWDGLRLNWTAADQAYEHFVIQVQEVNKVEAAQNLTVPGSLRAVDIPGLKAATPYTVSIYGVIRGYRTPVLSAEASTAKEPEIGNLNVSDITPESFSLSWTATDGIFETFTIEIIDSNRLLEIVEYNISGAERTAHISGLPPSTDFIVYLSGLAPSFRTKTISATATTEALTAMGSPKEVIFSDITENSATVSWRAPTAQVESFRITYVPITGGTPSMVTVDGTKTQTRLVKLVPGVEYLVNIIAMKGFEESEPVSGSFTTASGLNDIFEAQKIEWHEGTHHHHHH

T3: mouse TnC with C-terminal Avi- and His-tags (mouse, biotinylated at the C-terminal Avi-tag)
T3 construct: the N-terminal fn5 and C-terminal fn6 parts look like the human ones; also called muTnC; murine TnC
T3 chain: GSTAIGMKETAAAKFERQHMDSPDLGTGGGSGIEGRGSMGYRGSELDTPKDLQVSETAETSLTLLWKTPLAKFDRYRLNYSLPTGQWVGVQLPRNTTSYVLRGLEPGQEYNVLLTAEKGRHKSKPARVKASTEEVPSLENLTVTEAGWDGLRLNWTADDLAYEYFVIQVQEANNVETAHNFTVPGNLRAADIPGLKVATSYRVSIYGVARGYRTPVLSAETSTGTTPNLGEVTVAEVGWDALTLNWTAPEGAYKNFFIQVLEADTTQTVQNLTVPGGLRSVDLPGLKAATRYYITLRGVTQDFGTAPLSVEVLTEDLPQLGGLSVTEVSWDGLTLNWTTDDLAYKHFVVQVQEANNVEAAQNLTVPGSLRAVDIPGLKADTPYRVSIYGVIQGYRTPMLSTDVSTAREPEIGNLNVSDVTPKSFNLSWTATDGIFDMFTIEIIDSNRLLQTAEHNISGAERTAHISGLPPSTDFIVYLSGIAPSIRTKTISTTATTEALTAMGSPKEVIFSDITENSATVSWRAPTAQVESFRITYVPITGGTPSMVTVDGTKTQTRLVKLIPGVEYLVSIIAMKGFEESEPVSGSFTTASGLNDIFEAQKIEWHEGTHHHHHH


Tests used:
[1] = target: T4, human OX40 Fc(kih), monomeric Fc-linked human OX40 antigen ECD (human, UniProt P0DOX5 223-449 = IgG part); assay: ELISA, Fab-containing bacterial supernatants on biotinylated human OX40 on neutravidin plates, anti-Flag/HRP detection
T4 construct: Heterodimer of one OX40 ECD (aa 29-214)-AcTEV-Fc knob-Avi chain and one Fc hole chain; Biotinylated at the Avi tag for phage selection and ELISA; also called recombinant OX40 Fc (kih) receptor; biotinylated human OX40
Experimental: Selections were carried out over 3 or 4 rounds using constant antigen concentrations of 100 nM. […] In rounds 2 and 4, in order to avoid enrichment of binders to neutravidin, capture of antigen: phage complexes was performed by addition of 5.4×10⁷ streptavidin-coated magnetic beads. […] Fab-containing bacterial supernatants were added and binding Fabs were detected via their Flag-tags using an anti-Flag/HRP secondary antibody. […] They were bacterially expressed in a 0.5 liter culture volume, affinity purified and further characterized by SPR-analysis using BioRad's ProteOn XPR36 biosensor.

human OX40 on cells [2] = target: T1, human OX40 on cells; assay: flow cytometry on OX40+ cells (activated human PBMC)
Experimental: (§1) For labeling, cells were harvested, washed with pre-warmed (37° C.) DPBS and adjusted to a cell density of 1×10⁷ cells/mL in DPBS. eFluor670 cell proliferation dye (eBioscience, Cat.-No. 65-0840-85) was added to the suspension of naïve human PBMC at a final concentration of […] and a final cell density of 0.5×10⁷ cells/mL in DPBS. Cells were then incubated for 10 min at room temperature in the dark. To stop the labeling reaction, 4 mL heat inactivated FBS was added and cells were washed three times with T cell medium. A 2:1 mixture of 1×10⁵ resting eFluor670 labeled human PBMC and 0.5×10⁵ unlabeled activated human PBMC were then added to each well of round-bottomed suspension cell 96-well plates (Greiner bio-one, cellstar, Cat. No. 650185).
(§2) Cells were stained for 120 minutes at 4° C. in the dark in 50 μL/well 4° C. FACS buffer containing different amounts of the indicated antigen binding molecules. After three washes with 4° C. FACS buffer, cells were stained for 45 minutes at 4° C. in the dark in 25 μL/well 4° C. FACS buffer containing a mixture of fluorescently labeled anti-human CD4 (clone RPA-T4, mouse IgG1 k, BioLegend, Cat.-No. 300532), anti-human CD8 (clone RPa-T8, mouse IgGlk, BioLegend, Cat.-No. 3010441) and Fluorescein isothiocyanate (FITC)-conjugated AffiniPure anti-human IgG Fcγ-fragment-specific goat IgG F(ab′)₂ fragment (Jackson ImmunoResearch, Cat.-No. 109-096-098).
Cells were then resuspended in […] FACS-buffer containing 0.2 μg/mL DAPI (Santa Cruz Biotec, Cat. No. Sc-3598) and acquired the same day using 5-laser LSR-Fortessa (BD Bioscience with DIVA software).

[3] = target: T2, cynomolgus TnC with C-terminal Avi- and …; assay: SPR Biacore T200, biotinylated TnC on SA chip, bispecific as analyte, 1:1 fit, apparent KD (bivalent binding)
Experimental: (§3) The capacity of the bispecific constructs to bind human, murine and cynomolgus TnC was analysed by surface plasmon resonance (SPR). All SPR experiments were performed on a Biacore T200 at 25° C. with HBS-EP as running buffer (0.01 M HEPES pH 7.4, 0.15 M NaCl, 3 mM EDTA, 0.005% Surfactant P20, Biacore, Freiburg/Germany).
(§4) Biotinylated human, murine or cynomolgus TnC molecules were immobilised on a SA chip to reach an immobilization level of 10 resonance units (RU).
(§5) Following immobilisation, the bispecific molecules or control molecules were immediately passed over the chip surface at concentrations ranging from 0.05-50 nM, at a flow rate of 30 μL/minute for 120 seconds and a dissociation phase of 180 seconds. The surface was regenerated using 10 mM glycine pH2.1. Bulk refractive index differences were corrected for by subtracting the response obtained in a reference flow cell, where no TnC was immobilized. Affinity/Avidity was determined under these experimental conditions using the Langmuir 1:1 curve fitting. For bivalent binding the same 1:1 fitting was used leading to an apparent KD value.

[4] = target: T3, mouse TnC with C-terminal Avi- and …; assay: as above
Experimental: as §3, §4, §5

human OX40 on cells [5] = target: T1, human OX40 on cells; assay: flow cytometry on activated human PBMC, gated on CD8+ T cells; FITC anti-human IgG secondary; MFI baseline corrected
Experimental: as §1
as §2, with “109-096-098). […]” for “109-096-098).”

[6] = target: T4, human OX40 Fc(kih), monomeric Fc-linked …; assay: SPR (Biacore T200, 25 °C): bispecific held on immobilised human TnC; human OX40 Fc(kih) at 250 nM injected for 90 s as analyte 2
Experimental: All SPR experiments were performed on a Biacore T200 at 25° C. with HBS-EP as running buffer (0.01 M HEPES pH 7.4, 0.15 M NaCl, 3 mM EDTA, 0.005% Surfactant P20, Biacore, Freiburg/Germany).
Biotinylated human TnC was directly coupled to a flow cell of a streptavidin (SA) sensor chip. Immobilization levels up to 1000 resonance units (RU) were used.
Bulk refractive index differences were corrected for by subtracting the response obtained in a reference flow cell, where no protein was immobilized.

Row | Binder | binding result [1] | binding result [6] | further results
1 | anti-OX40 clone 20B7, Fab (Fab, V domains shown, Flag-tagged Fab in bacterial supernatant (phage library DP88-4); also called OX40(20B7)) VH: QVQLVQSGAEVKKPGSSVKVSCKASGGTFSSYAISWVRQAPGQGLEWMGGIIPIFGTANYAQKFQGRVTITADKSTSTAYMELSSLRSEDTAVYYCARVNYPYSYWGDFDYWGQGTTVTVSS VL: DIQMTQSPSTLSASVGDRVTITCRASQSISSWLAWYQQKPGKAPKLLIYDASSLESGVPSRFSGSGSGTEFTLTISSLQPDDFATYYCQQYQAFSLTFGQGTKVEIK | binds |  | 
2 | anti-OX40 clone 49B4, Fab (Fab, V domains shown, Flag-tagged Fab in bacterial supernatant (phage library DP88-4); also called OX40(49B4)) VH: QVQLVQSGAEVKKPGSSVKVSCKASGGTFSSYAISWVRQAPGQGLEWMGGIIPIFGTANYAQKFQGRVTITADKSTSTAYMELSSLRSEDTAVYYCAREYYRGPYDYWGQGTTVTVSS VL: DIQMTQSPSTLSASVGDRVTITCRASQSISSWLAWYQQKPGKAPKLLIYDASSLESGVPSRFSGSGSGTEFTLTISSLQPDDFATYYCQQYSSQPYTFGQGTKVEIK | binds |  | 
3 | 49B4/TnC 18D4 P329GLALA 4 + 2 (ID8035) (bispecific antibody, human IgG1, kappa, L234A L235A, huIgG1 P329G LALA; also called 49B4/18D4 4 + 2; 4 + 2 TnC (18D4)) heavy: not shown light 1: DIQMTQSPSTLSASVGDRVTITCRASQSISSWLAWYQQKPGKAPKLLIYDASSLESGVPSRFSGSGSGTEFTLTISSLQPDDFATYYCQQYSSQPYTFGQGTKVEIKRTVAAPSVFIFPPSDRKLKSGTASVVCLLNNFYPREAKVQWKVDNALQSGNSQESVTEQDSKDSTYSLSSTLTLSKADYEKHKVYACEVTHQGLSSPVTKSFNRGEC light 2: QVQLVQSGAEVKKPGSSVKVSCKASGGTFSSYAISWVRQAPGQGLEWMGGIIPIFGTANYAQKFQGRVTITADKSTSTAYMELSSLRSEDTAVYYCAKGNFYGGLDYWGQGTTVTVSSASVAAPSVFIFPPSDEQLKSGTASVVCLLNNFYPREAKVQWKVDNALQSGNSQESVTEQDSKDSTYSLSSTLTLSKADYEKHKVYACEVTHQGLSSPVTKSFNRGEC |  | binds | EC50 (human OX40 on cells [2]): 0.08 nM; Kd [3]: 0.4 nM; Kd [4]: 0.65 nM; EC50 (read off the curve) (human OX40 on cells [5]): ~0.1 nM
4 | 49B4/TnC 18D4 P329GLALA 4 + 1 (ID7745) (bispecific antibody, human IgG1, kappa, L234A L235A) heavy 1: not shown heavy 2: not shown light: DIQMTQSPSTLSASVGDRVTITCRASQSISSWLAWYQQKPGKAPKLLIYDASSLESGVPSRFSGSGSGTEFTLTISSLQPDDFATYYCQQYSSQPYTFGQGTKVEIKRTVAAPSVFIFPPSDEQLKSGTASVVCLLNNFYPREAKVQWKVDNALQSGNSQESVTEQDSKDSTYSLSSTLTLSKADYEKHKVYACEVTHQGLSSPVTKSFNRGEC |  | binds | 
5 | 49B4/TnC 18D4 P329GLALA 2 + 2 (ID7216) (bispecific antibody, human IgG1, kappa, L234A L235A, huIgG1 P329G LALA; 49B4 VHCH1-Fc-(G4S)4-18D4 VHCL heavy chain, 49B4 VLCL light chain, 18D4 VLCH1 crossed light chain; also called 2 + 2 (49B4/18D4); 49B4/18D4 2 + 2) heavy: not shown light 1: DIQMTQSPSTLSASVGDRVTITCRASQSISSWLAWYQQKPGKAPKLLIYDASSLESGVPSRFSGSGSGTEFTLTISSLQPDDFATYYCQQYSSQPYTFGQGTKVEIKRTVAAPSVFIFPPSDEQLKSGTASVVCLLNNFYPREAKVQWKVDNALQSGNSQESVTEQDSKDSTYSLSSTLTLSKADYEKHKVYACEVTHQGLSSPVTKSFNRGEC light 2: DIQMTQSPSTLSASVGDRVTITCRASQSISSWLAWYQQKPGKAPKLLIYDASSLESGVPSRFSGSGSGTEFTLTISSLQPDDFATYYCQQNKKFPSGTFGQGTKVEIKSSASTKGPSVFPLAPSSKSTSGGTAALGCLVKDYFPEPVTVSWNSGALTSGVHTFPAVLQSSGLYSLSSVVTVPSSSLGTQTYICNVNHKPSNTKVDKKVEPKSCD |  | binds | EC50 (human OX40 on cells [2]): 6.59 nM; Kd [3]: 0.28 nM; Kd [4]: 0.3 nM
6 | anti-OX40 clone 8H9, Fab (Fab, V domains shown, Flag-tagged Fab in bacterial supernatant (phage library DP88-4); also called OX40(8H9)) VH: QVQLVQSGAEVKKPGSSVKVSCKASGGTFSSYAISWVRQAPGQGLEWMGGIIPIFGTANYAQKFQGRVTITADKSTSTAYMELSSLRSEDTAVYYCAREYGWMDYWGQGTTVTVSS VL: not shown | binds |  | 
7 | anti-OX40 clone 1G4, Fab (Fab, V domains shown, Flag-tagged Fab in bacterial supernatant (phage library DP88-4); also called OX40(1G4)) VH: QVQLVQSGAEVKKPGSSVKVSCKASGGTFSSYAISWVRQAPGQGLEWMGGIIPIFGTANYAQKFQGRVTITADKSTSTAYMELSSLRSEDTAVYYCAREYGSMDYWGQGTTVTVSS VL: not shown | binds |  | 
8 | anti-OX40 clone 17A9, Fab (Fab, V domains shown, Flag-tagged Fab in bacterial supernatant (phage library lambda-DP47); also called OX40(17A9)) VH: not shown VL: SSELTQDPAVSVALGQTVRITCQGDSLRSYYASWYQQKPGQAPVLVIYGKNNRPSGIPDRFSGSSSGNTASLTITGAQAEDEADYYCNSRVMPHNRVFGGGTKLTV | binds |  | 
